Reference: PMC9541529 (The Febs Journal, 2022)

T1: Sup35 NM prion protein (NM domains) (S. cerevisiae, UniProt P05453 1-253)
T1 sequence: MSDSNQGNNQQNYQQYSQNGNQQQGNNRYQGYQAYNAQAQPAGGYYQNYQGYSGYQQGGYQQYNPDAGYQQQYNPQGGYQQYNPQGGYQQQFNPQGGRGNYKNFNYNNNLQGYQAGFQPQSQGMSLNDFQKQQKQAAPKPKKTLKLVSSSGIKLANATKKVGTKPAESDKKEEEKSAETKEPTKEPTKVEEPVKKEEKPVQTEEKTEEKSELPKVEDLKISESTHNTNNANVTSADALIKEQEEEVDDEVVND

B1: PhoA^349–471 (unfolded PhoA protein fragment, residues 349–471) (domain or fragment)
chain: DKQDHAANPCGQIGETVDLDEAVQRALEFAKKEGNTLVIVTADHAHASQIVAPDTKAPGLTQALNTKDGAVMVMSYGNSEEDSQEHTGSQLRIAAYGPHAANVVGLTDQTDLFYTMKAALGLK
B2: α‐lactalbumin (natural protein)
chain: EQLTKCEVFRELKDLKGYGGVSLPEWVCTTFHTSGYDTQAIVQNNDSTEYGLFQINNKIWCKDDQNPHSSNICNISCDKFLDDDLTDDIMCVKKILDKVGINYWLAHKALCSEKLDQWLCEKL
B3: Hsp104 N‐terminal domain (NTD), wild type (domain or fragment)
chain: MNDQTQFTERALTILTLAQKLASDHQHPQLQPIHILAAFIETPEDGSVPYLQNLIEKGRYDYDLFKKVVNRNLVRIPQQQPAPAEITPSYALGKVLQDAAKIQKQQKDSFIAQDHILFALFNDSSIQQIFKEAQVDIEAIKQQALELRGNTR

Legend:
[1] = target: B3; test: NMR titration
[2] = target: T1, Sup35 NM prion protein (NM domains); test: NMR titration
tau 2N4R = tau 2N4R (human, UniProt P10636-8 1-441); test: co-sedimentation

Binder	binding result [1]	binding result [2]	binding result (tau 2N4R)
B1	binds	–	–
B2	binds	–	–
B3	–	binds	binds
